Data as given in patent US20200255522A1 (published 2020).

T1: VEGF (UniProt P15692-9 27-147)
T1 construct: also called VEGF121
T1 sequence (looked up): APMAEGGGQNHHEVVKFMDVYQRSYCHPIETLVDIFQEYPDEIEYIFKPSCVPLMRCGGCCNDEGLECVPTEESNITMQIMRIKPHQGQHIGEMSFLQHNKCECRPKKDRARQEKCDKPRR


Experiments:
VEGF [1] = biological target: T1, VEGF; assay: bridging ELISA of exchange reaction mix: capture VEGF, detection biocytinamid-Cy5; signal needs both specificities; highest value = 100%, input 1.3 µM
VEGF [2] = biological target: T1, VEGF; assay: bridging ELISA, capture VEGF, detection biocytinamid-Cy5 or digoxygenin-Cy5
VEGF [3] = biological target: T1, VEGF; assay: bridging ELISA of exchange reaction mix: capture VEGF, detection digoxygenin-Cy5; signal needs both specificities; highest value = 100%, input 1.3 µM

| Binder | relative signal intensity (VEGF [1]) | binding result (VEGF [2]) | relative signal intensity (VEGF [3]) |
| --- | --- | --- | --- |
| bsAb from exchange reaction between anti-dig 2/3-IgG (MHCFcRP-knob-E357K) and anti-PDGF 2/3-IgG (MHCFcRP-hole-K370E) (bispecific antibody, not shown: small tags and cut ends, Exchange product as applied in the reaction mix; also called dig PDGF) heavy 1: QVQLVESGGGLVKPGGSLRLSCAASGFTFSDYAMSWIRQAPGKGLEWVSSINIGATYIYYADSVKGRFTISRDNAKNSLYLQMNSLRAEDTAVYYCARPGSPYEYDKAYYSMAYWGQGTTVTVSSASTKGPSVFPLAPSSKSTSGGTAALGCLVKDYFPEPVTVSWNSGALTSGVHTFPAVLQSSGLYSLSSVVTVPSSSLGTQTYICNVNHKPSNTKVDKKVEPKSC light 1: not shown heavy 2: EVQLVESGGGLVQPGGSLRLSCAASGFTFSSYWMSWVRQAPEKGLEWVSTISDGGGLTYYADSVKGRFTISRDNAKNSLYLQMNSLRAEDTAVYYCAESGGYTDWLFGYWGQGTLVTVSSASTKGPSVFPLAPSSKSTSGGTAALGCLVKDYFPEPVTVSWNSGALTSGVHTFPAVLQSSGLYSLSSVVTVPSSSLGTQTYICNVNHKPSNTKVDKKVEPKSC light 2: not shown | 9.9% | no binding (tested: 1.3 µM input molecule concentration) | 7% |
| bsAb from exchange reaction between anti-PDGF 2/3-IgG (MHCFcRP-knob-E357K) and anti-dig 2/3-IgG (MHCFcRP-hole-K370E) (bispecific antibody, not shown: small tags and cut ends, Exchange product as applied in the reaction mix; also called PDGF dig) heavy 1: EVQLVESGGGLVQPGGSLRLSCAASGFTFSSYWMSWVRQAPEKGLEWVSTISDGGGLTYYADSVKGRFTISRDNAKNSLYLQMNSLRAEDTAVYYCAESGGYTDWLFGYWGQGTLVTVSSASTKGPSVFPLAPSSKSTSGGTAALGCLVKDYFPEPVTVSWNSGALTSGVHTFPAVLQSSGLYSLSSVVTVPSSSLGTQTYICNVNHKPSNTKVDKKVEPKSC light 1: not shown heavy 2: QVQLVESGGGLVKPGGSLRLSCAASGFTFSDYAMSWIRQAPGKGLEWVSSINIGATYIYYADSVKGRFTISRDNAKNSLYLQMNSLRAEDTAVYYCARPGSPYEYDKAYYSMAYWGQGTTVTVSSASTKGPSVFPLAPSSKSTSGGTAALGCLVKDYFPEPVTVSWNSGALTSGVHTFPAVLQSSGLYSLSSVVTVPSSSLGTQTYICNVNHKPSNTKVDKKVEPKSC light 2: not shown | 9.2% | no binding (tested: 1.3 µM input molecule concentration) | 5.9% |
| bsAb from exchange reaction between anti-bio 2/3-IgG (MHCFcRP-knob-E357K) and anti-fluos 2/3-IgG (MHCFcRP-hole-K370E) (bispecific antibody, Exchange product as applied in the reaction mix; also called bio fluos) heavy 1: not shown light 1: DIQMTQSPSSLSASVGDRVTITCRASGNIHNYLSWYQQKPGKVPKLLIYSAKTLADGVPSRFSGSGSGTDFTLTISSLQPEDVATYYCQHFWSSIYTFGQGTKLEIKRTVAAPSVFIFPPSDEQLKSGTASVVCLLNNFYPREAKVQWKVDNALQSGNSQESVTEQDSKDSTYSLSSTLTLSKADYEKHKVYACEVTHQGLSSPVTKSFNRGEC heavy 2: not shown light 2: DIVMTQTPLSLSVTPGQPASISCKSSQSLVHSNGNTYLRWYLQKPGQSPKVLIYKVSNRVSGVPDRFSGSGSGTDFTLKISRVEAEDVGVYYCSQSTHVPWTFGQGTKLEIKRTVAAPSVFIFPPSDEQLKSGTASVVCLLNNFYPREAKVQWKVDNALQSGNSQESVTEQDSKDSTYSLSSTLTLSKADYEKHKVYACEVTHQGLSSPVTKSFNRGEC | 9% | no binding (tested: 1.3 µM input molecule concentration) | 7.2% |
| bsAb from exchange reaction between anti-dig 2/3-IgG (MHCFcRP-knob-E357K) and anti-bio 2/3-IgG (MHCFcRP-hole-K370E) (bispecific antibody, not shown: small tags and cut ends, Exchange product as applied in the reaction mix; also called dig bio) heavy 1: QVQLVESGGGLVKPGGSLRLSCAASGFTFSDYAMSWIRQAPGKGLEWVSSINIGATYIYYADSVKGRFTISRDNAKNSLYLQMNSLRAEDTAVYYCARPGSPYEYDKAYYSMAYWGQGTTVTVSSASTKGPSVFPLAPSSKSTSGGTAALGCLVKDYFPEPVTVSWNSGALTSGVHTFPAVLQSSGLYSLSSVVTVPSSSLGTQTYICNVNHKPSNTKVDKKVEPKSC light 1: not shown heavy 2: not shown light 2: DIQMTQSPSSLSASVGDRVTITCRASGNIHNYLSWYQQKPGKVPKLLIYSAKTLADGVPSRFSGSGSGTDFTLTISSLQPEDVATYYCQHFWSSIYTFGQGTKLEIKRTVAAPSVFIFPPSDEQLKSGTASVVCLLNNFYPREAKVQWKVDNALQSGNSQESVTEQDSKDSTYSLSSTLTLSKADYEKHKVYACEVTHQGLSSPVTKSFNRGEC | 9% | no binding (tested: 1.3 µM input molecule concentration) | 6.2% |
| bsAb from exchange reaction between anti-fluos 2/3-IgG (MHCFcRP-knob-E357K) and anti-dig 2/3-IgG (MHCFcRP-hole-K370E) (bispecific antibody, not shown: small tags and cut ends, Exchange product as applied in the reaction mix; also called fluos dig) heavy 1: not shown light 1: DIVMTQTPLSLSVTPGQPASISCKSSQSLVHSNGNTYLRWYLQKPGQSPKVLIYKVSNRVSGVPDRFSGSGSGTDFTLKISRVEAEDVGVYYCSQSTHVPWTFGQGTKLEIKRTVAAPSVFIFPPSDEQLKSGTASVVCLLNNFYPREAKVQWKVDNALQSGNSQESVTEQDSKDSTYSLSSTLTLSKADYEKHKVYACEVTHQGLSSPVTKSFNRGEC heavy 2: QVQLVESGGGLVKPGGSLRLSCAASGFTFSDYAMSWIRQAPGKGLEWVSSINIGATYIYYADSVKGRFTISRDNAKNSLYLQMNSLRAEDTAVYYCARPGSPYEYDKAYYSMAYWGQGTTVTVSSASTKGPSVFPLAPSSKSTSGGTAALGCLVKDYFPEPVTVSWNSGALTSGVHTFPAVLQSSGLYSLSSVVTVPSSSLGTQTYICNVNHKPSNTKVDKKVEPKSC light 2: not shown | 9.4% | no binding (tested: 1.3 µM input molecule concentration) | 6.3% |
| bsAb from exchange reaction between anti-dig 2/3-IgG (MHCFcRP-knob-E357K) and anti-fluos 2/3-IgG (MHCFcRP-hole-K370E) (bispecific antibody, not shown: small tags and cut ends, Exchange product as applied in the reaction mix; also called dig fluos) heavy 1: QVQLVESGGGLVKPGGSLRLSCAASGFTFSDYAMSWIRQAPGKGLEWVSSINIGATYIYYADSVKGRFTISRDNAKNSLYLQMNSLRAEDTAVYYCARPGSPYEYDKAYYSMAYWGQGTTVTVSSASTKGPSVFPLAPSSKSTSGGTAALGCLVKDYFPEPVTVSWNSGALTSGVHTFPAVLQSSGLYSLSSVVTVPSSSLGTQTYICNVNHKPSNTKVDKKVEPKSC light 1: not shown heavy 2: not shown light 2: DIVMTQTPLSLSVTPGQPASISCKSSQSLVHSNGNTYLRWYLQKPGQSPKVLIYKVSNRVSGVPDRFSGSGSGTDFTLKISRVEAEDVGVYYCSQSTHVPWTFGQGTKLEIKRTVAAPSVFIFPPSDEQLKSGTASVVCLLNNFYPREAKVQWKVDNALQSGNSQESVTEQDSKDSTYSLSSTLTLSKADYEKHKVYACEVTHQGLSSPVTKSFNRGEC | 9.1% | no binding (tested: 1.3 µM input molecule concentration) | 6.7% |
| bsAb from exchange reaction between anti-fluos 2/3-IgG (MHCFcRP-knob-E357K) and anti-bio 2/3-IgG (MHCFcRP-hole-K370E) (bispecific antibody, Exchange product as applied in the reaction mix; also called fluos bio) heavy 1: not shown light 1: DIVMTQTPLSLSVTPGQPASISCKSSQSLVHSNGNTYLRWYLQKPGQSPKVLIYKVSNRVSGVPDRFSGSGSGTDFTLKISRVEAEDVGVYYCSQSTHVPWTFGQGTKLEIKRTVAAPSVFIFPPSDEQLKSGTASVVCLLNNFYPREAKVQWKVDNALQSGNSQESVTEQDSKDSTYSLSSTLTLSKADYEKHKVYACEVTHQGLSSPVTKSFNRGEC heavy 2: not shown light 2: DIQMTQSPSSLSASVGDRVTITCRASGNIHNYLSWYQQKPGKVPKLLIYSAKTLADGVPSRFSGSGSGTDFTLTISSLQPEDVATYYCQHFWSSIYTFGQGTKLEIKRTVAAPSVFIFPPSDEQLKSGTASVVCLLNNFYPREAKVQWKVDNALQSGNSQESVTEQDSKDSTYSLSSTLTLSKADYEKHKVYACEVTHQGLSSPVTKSFNRGEC | 10.2% | no binding (tested: 1.3 µM input molecule concentration) | 6.5% |
| bsAb from exchange reaction between anti-bio 2/3-IgG (MHCFcRP-knob-E357K) and anti-dig 2/3-IgG (MHCFcRP-hole-K370E) (bispecific antibody, not shown: small tags and cut ends, Exchange product as applied in the reaction mix; also called bio dig) heavy 1: not shown light 1: DIQMTQSPSSLSASVGDRVTITCRASGNIHNYLSWYQQKPGKVPKLLIYSAKTLADGVPSRFSGSGSGTDFTLTISSLQPEDVATYYCQHFWSSIYTFGQGTKLEIKRTVAAPSVFIFPPSDEQLKSGTASVVCLLNNFYPREAKVQWKVDNALQSGNSQESVTEQDSKDSTYSLSSTLTLSKADYEKHKVYACEVTHQGLSSPVTKSFNRGEC heavy 2: QVQLVESGGGLVKPGGSLRLSCAASGFTFSDYAMSWIRQAPGKGLEWVSSINIGATYIYYADSVKGRFTISRDNAKNSLYLQMNSLRAEDTAVYYCARPGSPYEYDKAYYSMAYWGQGTTVTVSSASTKGPSVFPLAPSSKSTSGGTAALGCLVKDYFPEPVTVSWNSGALTSGVHTFPAVLQSSGLYSLSSVVTVPSSSLGTQTYICNVNHKPSNTKVDKKVEPKSC light 2: not shown | 9.3% | no binding (tested: 1.3 µM input molecule concentration) | 6.2% |
| bsAb from exchange reaction between anti-bio 2/3-IgG (MHCFcRP-knob-E357K) and anti-PDGF 2/3-IgG (MHCFcRP-hole-K370E) (bispecific antibody, not shown: small tags and cut ends, Exchange product as applied in the reaction mix; also called bio PDGF) heavy 1: not shown light 1: DIQMTQSPSSLSASVGDRVTITCRASGNIHNYLSWYQQKPGKVPKLLIYSAKTLADGVPSRFSGSGSGTDFTLTISSLQPEDVATYYCQHFWSSIYTFGQGTKLEIKRTVAAPSVFIFPPSDEQLKSGTASVVCLLNNFYPREAKVQWKVDNALQSGNSQESVTEQDSKDSTYSLSSTLTLSKADYEKHKVYACEVTHQGLSSPVTKSFNRGEC heavy 2: EVQLVESGGGLVQPGGSLRLSCAASGFTFSSYWMSWVRQAPEKGLEWVSTISDGGGLTYYADSVKGRFTISRDNAKNSLYLQMNSLRAEDTAVYYCAESGGYTDWLFGYWGQGTLVTVSSASTKGPSVFPLAPSSKSTSGGTAALGCLVKDYFPEPVTVSWNSGALTSGVHTFPAVLQSSGLYSLSSVVTVPSSSLGTQTYICNVNHKPSNTKVDKKVEPKSC light 2: not shown | 10.1% | no binding (tested: 1.3 µM input molecule concentration) | 6.1% |
| bsAb from exchange reaction between anti-PDGF 2/3-IgG (MHCFcRP-knob-E357K) and anti-bio 2/3-IgG (MHCFcRP-hole-K370E) (bispecific antibody, not shown: small tags and cut ends, Exchange product as applied in the reaction mix; also called PDGF bio) heavy 1: EVQLVESGGGLVQPGGSLRLSCAASGFTFSSYWMSWVRQAPEKGLEWVSTISDGGGLTYYADSVKGRFTISRDNAKNSLYLQMNSLRAEDTAVYYCAESGGYTDWLFGYWGQGTLVTVSSASTKGPSVFPLAPSSKSTSGGTAALGCLVKDYFPEPVTVSWNSGALTSGVHTFPAVLQSSGLYSLSSVVTVPSSSLGTQTYICNVNHKPSNTKVDKKVEPKSC light 1: not shown heavy 2: not shown light 2: DIQMTQSPSSLSASVGDRVTITCRASGNIHNYLSWYQQKPGKVPKLLIYSAKTLADGVPSRFSGSGSGTDFTLTISSLQPEDVATYYCQHFWSSIYTFGQGTKLEIKRTVAAPSVFIFPPSDEQLKSGTASVVCLLNNFYPREAKVQWKVDNALQSGNSQESVTEQDSKDSTYSLSSTLTLSKADYEKHKVYACEVTHQGLSSPVTKSFNRGEC | 10.5% | no binding (tested: 1.3 µM input molecule concentration) | 6% |
